The values that follow come from US20230115257A1 (CURIA IP, published 2023).

Test [1] deals with T1, SARS-CoV-2 Beta (B.1.351) variant prefusion stabilized spike trimer protein (SARS-CoV-2 Beta (B.1.351), UniProt P0DTC2 14-1213).
T1 construct: also called SARS-CoV-2 B.1.351 spike protein; β spike
Briefly: ELISA screens of hybridomas on WT, Alpha, Beta and Gamma spike. A general note: An ELISA detects its analyte on a solid surface through an enzyme-linked reagent.

For test [2], the target named is T2, SARS-CoV-2 (WIV02 isolate) prefusion stabilized spike trimer protein (SARS-CoV-2 (WIV02 isolate), UniProt P0DTC2 14-1213).
T2 construct: also called WT; SARS-CoV-2 spike trimer
Briefly: Table A: binding pattern against variant spike proteins.

The target of test [3] is T3, SARS-CoV-2 B.1.1.7 spike protein (SARS-CoV-2 B.1.1.7 (Alpha), UniProt P0DTC2 13-1213).
T3 construct: also called alpha; SARS-CoV-2 B.1.1.7 spike trimer variant
The description is as above.

The target of test [4] is T4, SARS-CoV-2 P.1 spike protein (SARS-CoV-2 P.1 (Gamma), UniProt P0DTC2 13-1213).
T4 construct: also called gamma; SARS-CoV-2 P.1 spike trimer variant
The test is described as above.

For test [5], the target named is T5, SARS-CoV-2 B.1.617.2 spike trimer variant (SARS-CoV-2 B.1.617.2 (Delta), UniProt P0DTC2 16-1213).
T5 construct: also called delta; SARS-CoV-2 Delta Spike
The description is as above.

For test [6], the target named is T6, SARS-CoV-2 B.1.1.529 spike trimer variant (SARS-CoV-2 B.1.1.529 (Omicron), UniProt P0DTC2 16-1213).
T6 construct: also called omicron; Omicron B.1.1.529
Described as above.

Test [7] deals with T7, SARS-CoV-2 BA.2 spike trimer variant (SARS-CoV-2 Omicron BA.2, UniProt P0DTC2 16-1213).
T7 construct: also called Omicron BA.2
The description is as above.

Test [8] concerns the target T1, SARS-CoV-2 Beta (B.1.351) variant …. Briefly: Table A (reprint): binding pattern against variant spike proteins.

B1: 4-O14-B (antibody, V domains shown)
VH: QVQLQQPGAELVKPGASVKLSCKASGYAFISHWMHWVRQRPGRGLEWIGRIDPNSSGSKDNEKFRSKATLTVDKPSSTAYMQLSSLTSEDSAVYYCARSPYYSNPYWYFDVWGAGTTVTVSS
VL: EIVLTQSPALMAASPGEKVTITCSVSSSISSSNLHWYQQKSETSPKPWIYGTSNLASGVPVRFSGSGSGTSYSLTITNMEAEDAATYYCQQWSSYPFTFGSGTKLEIK
Turning to B1, the binding result in test [1] is “binds”.

B2: 9-G24-A (antibody, V domains shown)
VH: QVQLQQSGAELVRPGASVKLSCKASGYTFTDYEMHWVKQTPVHGLEWIGVIDPETGDTAYNQKFKDKATLTADKSSSTAYMELRSLTSEDSAVYYCARRRDYGNPYWYFDVWGAGTAVTVSS
VL: EIVLTQSPALMAASPGEKVTITCSASSSISSSNLHWYQQKSGTSPKPWIYGTSNLASGVPVRFSGSGSGTSYSLTISSMEAEDAATYVCQQWSNYPYTFGSGTKLEIK
For the molecule B2, the binding result in test [2], in test [3], in test [4], in test [5], in test [6] and in test [7] was “no binding” throughout.

B3: 9-M12-A (antibody, V domains shown)
VH: EVQLVESGGDLVKPGGSLKLSCTASGFTFSSYGMSWVRQTPDKRLEWVTTISSGGGYTYVPDSVKGRFTISRDNAKNTLYLHMSSLKSEDTAMYFCARPLIPTMVEAFDYWGQGTSLTVSS
VL: SIVMTQTPKFLPVSAGDRVTMTCKASQSVGNNVAWYQQKPGQSPKLLIYYASNRYTGVPDRFTGSGSGADFTFTISSVQVEDLAVYFCQQHYSSPFTFGTGTKLEIK
On to B3, for which the binding result in test [2], in test [3], in test [4], in test [5], in test [6] and in test [7] was “no binding” in each case.

B4: 3-P17-A (antibody, V domains shown)
VH: QVQLKQSGPGLVQPSQSLSITCTVSGFSLTSYGVHWVRQSPGKGLEWLGVIWSGGITDYNAGFISRLSISKDNSKSQVFFTMNSLQADDTAIYYCARIITTVLDQFADWGQGTLVTVSA
VL: DIVLTQSPASLAVSLGQRATISCRASQSVSTSTYSYIHWYQQKPGQPPKLLIKYASNLESGVPARFSGSGSGTDFTLNIHPVEEEDTATYYCQHSWEIPPTFGAGTKLELK
Take B4: the binding result in test [2], in test [3], in test [4], in test [5], in test [6] and in test [7] was “no binding” throughout. Also, the binding result in test [8] was “binds”.

B5: 3-K11-A (antibody, V domains shown)
VH: EVQLQQSGPELVKPGASVKMSCKASGYTFTSYVMHWVKQKPGQGLEWIGYINPYNDGTEYNEKFKGKATLTSDKSSSTAYMELSSLTSEDSAVYHCAREAYRYFDVWGTGTTVTVSS
VL: DIQMTQSPASLSVSVGETVTITCRASENIYSNLAWYQQKQGKYPQLLVYGATNLADGVPSRFSGSGSGTQYFLKINSLQSEDFGSYYCQHFWGIPWTFGGGTKLEIK
With B5, the binding result in test [2], in test [3], in test [4], in test [5] and in test [7] was “no binding” in each case.
